Assays:
AncSZ = experiment: phosphorylation enrichment, bacterial display (enrichment ratio); higher = better substrate or ligand; peptides without Tyr show the background
EPHB1 = EPHB1 (UniProt P54762); experiment: as above
EPHB2 = EPHB2 (UniProt P29323); experiment: as above
FGFR1 = FGFR1 (UniProt P11362); experiment: as above
FGFR3 = FGFR3 (UniProt P22607); experiment: as above
Fer (mouse) = experiment: as above
Fes = Fes (UniProt P07332); experiment: as above
Fyn = Fyn (UniProt P06241); experiment: as above
Sequence of Fyn (P06241 whole entry, looked up): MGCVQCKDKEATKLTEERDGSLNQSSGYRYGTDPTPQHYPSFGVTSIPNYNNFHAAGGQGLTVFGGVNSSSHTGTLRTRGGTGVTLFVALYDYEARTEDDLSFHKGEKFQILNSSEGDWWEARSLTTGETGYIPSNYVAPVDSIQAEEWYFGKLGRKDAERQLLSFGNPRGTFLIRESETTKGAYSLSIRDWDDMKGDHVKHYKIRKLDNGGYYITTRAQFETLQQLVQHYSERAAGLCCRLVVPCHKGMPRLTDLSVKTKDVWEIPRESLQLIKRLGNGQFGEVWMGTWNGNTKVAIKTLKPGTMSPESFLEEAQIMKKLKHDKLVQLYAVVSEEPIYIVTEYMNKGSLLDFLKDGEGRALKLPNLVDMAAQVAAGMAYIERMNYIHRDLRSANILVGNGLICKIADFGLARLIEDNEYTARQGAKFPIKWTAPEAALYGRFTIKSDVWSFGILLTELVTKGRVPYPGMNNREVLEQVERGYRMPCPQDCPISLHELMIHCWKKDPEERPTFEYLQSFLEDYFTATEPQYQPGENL

Hck = Hck (UniProt P08631); experiment: as above
Sequence of Hck (P08631 whole entry, looked up): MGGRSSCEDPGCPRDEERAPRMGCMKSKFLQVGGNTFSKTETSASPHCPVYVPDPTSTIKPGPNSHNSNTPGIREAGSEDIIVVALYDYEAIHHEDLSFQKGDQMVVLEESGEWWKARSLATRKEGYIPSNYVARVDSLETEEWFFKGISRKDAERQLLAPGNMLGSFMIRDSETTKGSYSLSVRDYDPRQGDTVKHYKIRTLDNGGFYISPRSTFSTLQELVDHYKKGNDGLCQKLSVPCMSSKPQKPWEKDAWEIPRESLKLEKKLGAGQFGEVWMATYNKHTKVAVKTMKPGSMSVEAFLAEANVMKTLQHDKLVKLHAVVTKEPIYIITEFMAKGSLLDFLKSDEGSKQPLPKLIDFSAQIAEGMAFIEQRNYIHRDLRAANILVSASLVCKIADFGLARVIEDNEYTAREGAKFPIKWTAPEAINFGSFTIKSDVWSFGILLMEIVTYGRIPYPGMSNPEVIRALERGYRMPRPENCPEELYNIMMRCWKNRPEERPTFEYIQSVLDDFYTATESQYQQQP

Jak2 = Jak2 (UniProt O60674); experiment: as above
Sequence of Jak2 (O60674 whole entry, looked up): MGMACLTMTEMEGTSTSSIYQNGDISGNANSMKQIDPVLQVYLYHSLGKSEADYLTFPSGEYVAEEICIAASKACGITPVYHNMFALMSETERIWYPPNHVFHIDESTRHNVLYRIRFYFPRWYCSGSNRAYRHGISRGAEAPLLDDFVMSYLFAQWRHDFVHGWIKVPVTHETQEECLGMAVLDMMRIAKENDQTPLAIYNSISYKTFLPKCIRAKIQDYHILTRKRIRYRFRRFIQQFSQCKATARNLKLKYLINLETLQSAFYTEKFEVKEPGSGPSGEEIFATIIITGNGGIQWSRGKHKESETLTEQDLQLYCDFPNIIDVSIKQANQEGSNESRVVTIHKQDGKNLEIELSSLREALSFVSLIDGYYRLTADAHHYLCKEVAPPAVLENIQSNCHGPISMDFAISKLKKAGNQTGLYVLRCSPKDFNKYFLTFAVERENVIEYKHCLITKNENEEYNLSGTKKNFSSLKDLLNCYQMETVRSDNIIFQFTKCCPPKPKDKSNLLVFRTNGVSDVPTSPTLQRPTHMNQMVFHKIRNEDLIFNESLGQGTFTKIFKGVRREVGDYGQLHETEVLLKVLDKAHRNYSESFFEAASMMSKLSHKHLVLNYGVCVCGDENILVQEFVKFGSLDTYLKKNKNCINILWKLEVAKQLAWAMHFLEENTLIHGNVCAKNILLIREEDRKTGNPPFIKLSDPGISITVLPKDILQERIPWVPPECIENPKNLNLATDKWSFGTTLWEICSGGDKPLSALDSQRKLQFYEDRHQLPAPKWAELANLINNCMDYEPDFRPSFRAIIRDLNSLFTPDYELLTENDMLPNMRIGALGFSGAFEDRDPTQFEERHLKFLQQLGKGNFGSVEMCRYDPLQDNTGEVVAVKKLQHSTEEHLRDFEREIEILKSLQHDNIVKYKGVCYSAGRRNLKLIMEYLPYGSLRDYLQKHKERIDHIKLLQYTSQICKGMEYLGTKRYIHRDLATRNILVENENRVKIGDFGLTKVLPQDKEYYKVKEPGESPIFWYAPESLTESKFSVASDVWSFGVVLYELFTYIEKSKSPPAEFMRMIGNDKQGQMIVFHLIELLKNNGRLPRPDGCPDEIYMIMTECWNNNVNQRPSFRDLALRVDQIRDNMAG

MERTK = MERTK (UniProt Q12866); experiment: as above
c-Abl (mouse) = experiment: as above
c-Src = experiment: as above
Grb2 SH2 = Grb2 SH2 (UniProt P62993); experiment: SH2 binding enrichment of the phosphorylated peptide, bacterial display (enrichment ratio); higher = better substrate or ligand; peptides without Tyr show the background
Sequence of Grb2 SH2 (P62993 whole entry, looked up): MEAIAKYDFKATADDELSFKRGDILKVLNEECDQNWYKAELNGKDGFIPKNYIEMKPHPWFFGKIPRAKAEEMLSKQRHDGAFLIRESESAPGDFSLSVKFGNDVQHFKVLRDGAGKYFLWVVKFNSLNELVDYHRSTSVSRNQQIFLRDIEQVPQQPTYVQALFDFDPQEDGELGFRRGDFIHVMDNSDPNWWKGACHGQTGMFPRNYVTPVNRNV

SHP2-C SH2 = experiment: as above
c-Src SH2 = experiment: as above
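Wherever SH2 binding enrichment of the phosphorylated peptide, bacterial display is given: peptide library displayed on the E. coli surface as eCPX fusions, selected cells deep-sequenced, score is each peptide's frequency after selection divided by its frequency in the input.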
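Wherever phosphorylation enrichment, bacterial display is given: 11-residue human phosphosite peptides and single-mutation variants displayed on the E. coli surface, counted by deep sequencing, each peptide's frequency after selection divided by its frequency in the unselected input library; frequency after pTyr selection over input frequency; kinase dosed for 20-30% of maximal phosphorylation in three min.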

Sequence of EPHB1 (P54762 whole entry, looked up): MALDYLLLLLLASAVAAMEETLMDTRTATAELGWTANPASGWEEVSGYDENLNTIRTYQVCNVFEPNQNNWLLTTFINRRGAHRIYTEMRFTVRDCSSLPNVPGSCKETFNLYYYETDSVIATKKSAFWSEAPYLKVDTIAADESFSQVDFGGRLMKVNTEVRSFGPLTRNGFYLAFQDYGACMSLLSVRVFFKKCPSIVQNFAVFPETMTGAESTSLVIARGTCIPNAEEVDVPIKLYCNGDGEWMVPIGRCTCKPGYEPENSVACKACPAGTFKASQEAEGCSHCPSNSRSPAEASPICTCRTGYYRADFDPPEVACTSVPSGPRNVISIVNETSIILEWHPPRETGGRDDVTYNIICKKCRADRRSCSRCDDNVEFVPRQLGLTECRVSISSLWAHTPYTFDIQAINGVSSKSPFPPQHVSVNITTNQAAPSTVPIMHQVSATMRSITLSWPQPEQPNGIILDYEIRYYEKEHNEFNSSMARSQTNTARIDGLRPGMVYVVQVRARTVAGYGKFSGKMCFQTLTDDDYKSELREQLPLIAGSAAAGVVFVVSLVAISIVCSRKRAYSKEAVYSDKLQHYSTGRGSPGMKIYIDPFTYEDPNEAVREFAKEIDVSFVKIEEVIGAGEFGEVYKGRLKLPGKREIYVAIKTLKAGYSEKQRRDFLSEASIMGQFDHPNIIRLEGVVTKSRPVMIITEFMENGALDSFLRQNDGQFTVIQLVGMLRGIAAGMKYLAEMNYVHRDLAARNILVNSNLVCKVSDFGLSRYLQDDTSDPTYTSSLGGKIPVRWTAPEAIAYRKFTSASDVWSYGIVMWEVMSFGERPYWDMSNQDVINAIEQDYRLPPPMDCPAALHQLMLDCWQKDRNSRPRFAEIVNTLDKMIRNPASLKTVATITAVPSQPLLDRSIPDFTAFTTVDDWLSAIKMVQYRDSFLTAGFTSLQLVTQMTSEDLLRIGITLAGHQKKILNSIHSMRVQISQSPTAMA
Sequence of FGFR1 (P11362 whole entry, looked up): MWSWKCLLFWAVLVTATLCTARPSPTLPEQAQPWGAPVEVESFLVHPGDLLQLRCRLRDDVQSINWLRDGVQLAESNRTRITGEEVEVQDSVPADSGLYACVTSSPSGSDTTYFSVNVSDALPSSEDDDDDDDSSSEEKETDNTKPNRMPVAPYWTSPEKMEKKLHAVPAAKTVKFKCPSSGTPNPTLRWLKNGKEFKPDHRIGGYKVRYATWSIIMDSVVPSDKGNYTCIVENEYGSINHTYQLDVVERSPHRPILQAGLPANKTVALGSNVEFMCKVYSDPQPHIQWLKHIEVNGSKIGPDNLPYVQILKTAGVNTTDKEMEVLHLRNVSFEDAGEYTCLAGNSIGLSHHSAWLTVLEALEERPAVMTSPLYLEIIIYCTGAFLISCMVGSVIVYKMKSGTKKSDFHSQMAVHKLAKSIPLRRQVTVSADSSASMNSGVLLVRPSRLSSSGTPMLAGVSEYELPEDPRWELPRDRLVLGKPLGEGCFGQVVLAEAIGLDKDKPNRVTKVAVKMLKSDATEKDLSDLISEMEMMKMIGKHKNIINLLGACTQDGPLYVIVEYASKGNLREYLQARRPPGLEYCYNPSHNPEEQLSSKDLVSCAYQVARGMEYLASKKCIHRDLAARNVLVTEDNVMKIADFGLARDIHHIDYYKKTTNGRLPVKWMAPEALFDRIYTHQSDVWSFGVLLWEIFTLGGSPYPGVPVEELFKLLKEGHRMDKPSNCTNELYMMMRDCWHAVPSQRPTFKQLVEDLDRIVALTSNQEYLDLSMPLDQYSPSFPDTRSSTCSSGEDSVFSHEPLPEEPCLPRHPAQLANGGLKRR
Sequence of Fes (P07332 whole entry, looked up): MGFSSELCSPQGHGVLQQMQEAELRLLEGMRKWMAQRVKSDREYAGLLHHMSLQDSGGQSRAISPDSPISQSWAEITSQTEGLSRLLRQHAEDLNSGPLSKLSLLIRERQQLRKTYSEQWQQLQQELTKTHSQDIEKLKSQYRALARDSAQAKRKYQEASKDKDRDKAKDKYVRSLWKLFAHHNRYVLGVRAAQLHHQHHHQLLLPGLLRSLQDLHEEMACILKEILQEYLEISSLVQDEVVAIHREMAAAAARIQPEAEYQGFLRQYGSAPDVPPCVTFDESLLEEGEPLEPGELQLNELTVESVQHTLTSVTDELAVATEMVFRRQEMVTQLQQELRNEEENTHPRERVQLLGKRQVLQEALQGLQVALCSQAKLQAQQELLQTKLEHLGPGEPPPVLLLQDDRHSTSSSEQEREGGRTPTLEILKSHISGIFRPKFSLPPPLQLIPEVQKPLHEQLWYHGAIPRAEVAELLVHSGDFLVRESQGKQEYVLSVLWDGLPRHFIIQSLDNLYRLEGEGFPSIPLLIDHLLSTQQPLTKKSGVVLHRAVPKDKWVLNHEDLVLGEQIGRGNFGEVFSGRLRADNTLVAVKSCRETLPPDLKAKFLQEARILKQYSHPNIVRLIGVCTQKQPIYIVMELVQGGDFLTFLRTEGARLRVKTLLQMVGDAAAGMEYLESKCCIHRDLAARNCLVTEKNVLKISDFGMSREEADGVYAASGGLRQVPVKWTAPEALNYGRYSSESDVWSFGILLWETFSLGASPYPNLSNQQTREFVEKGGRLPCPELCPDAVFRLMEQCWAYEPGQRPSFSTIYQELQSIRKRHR

Row | Sequence | phosphorylation enrichment (AncSZ) | phosphorylation enrichment (EPHB1) | phosphorylation enrichment (EPHB2) | phosphorylation enrichment (FGFR1) | phosphorylation enrichment (FGFR3) | phosphorylation enrichment (Fer (mouse)) | phosphorylation enrichment (Fes) | phosphorylation enrichment (Fyn) | phosphorylation enrichment (Hck) | phosphorylation enrichment (Jak2) | phosphorylation enrichment (MERTK) | phosphorylation enrichment (c-Abl (mouse)) | phosphorylation enrichment (c-Src) | SH2 binding enrichment (Grb2 SH2) | SH2 binding enrichment (SHP2-C SH2) | SH2 binding enrichment (c-Src SH2)
1 | PADSGYPAFLG [ATP6V1A_Y374_YF] | 1.72 | 1.51 | 0.6 | 0.981 | 1.36 | 0.759 | 1.88 | 1.04 | 0.959 | 1.1 | 0.87 | 1.12 | 0.772 | 0.765 | 0.502 | 0.423
2 | PAIERYVVVCK [RHO_Y136_L131P] | 1.08 | 0.896 | 0.846 | 0.505 | 0.851 | 0.473 | 1.41 | 0.612 | 0.551 | 1.08 | 0.374 | 0.928 | 0.474 | 0.857 | 0.751 | 0.686
3 | PDMHSYVVRFN [GRIN2D_Y732_M733V_YF] | 0.882 | 0.658 | 0.464 | 0.78 | 0.797 | 0.411 | 1.04 | 0.467 | 0.431 | 1.81 | 0.531 | 0.873 | 0.553 | 1.29 | 1 | 1.25
4 | PELINYHQHYS [BTK_Y361_N365Y] | 0.742 | 1.23 | 1.68 | 0.769 | 0.585 | 0.427 | 0.688 | 0.662 | 0.356 | 0.577 | 0.319 | 0.563 | 0.5 | 1.08 | 1.07 | 0.658
5 | PELINYHQPNS [BTK_Y361_H364P] | 0.928 | 1.04 | 0.727 | 0.723 | 0.857 | 0.678 | 0.908 | 0.597 | 0.734 | 0.829 | 0.657 | 0.574 | 0.8 | 1.07 | 0.763 | 0.704
6 | PFAEPYADFGG [APBA1_Y187_S184A_YF] | 1.13 | 0.695 | 0.593 | 0.68 | 0.802 | 0.38 | 1.2 | 0.72 | 0.673 | 0.993 | 0.571 | 0.638 | 2.43 | 0.742 | 0.682 | 0.676
7 | PFFTSYPPSPD [GDAP2_Y491_YF] | 0.907 | 0.438 | 0.447 | 0.557 | 0.644 | 0.507 | 1.15 | 0.498 | 0.356 | 1.14 | 0.629 | 0.901 | 0.588 | 0.739 | 0.568 | 0.471
8 | PFQGAYLEINK [MYO1B_Y967] | 1.03 | 0.609 | 0.577 | 0.485 | 0.763 | 0.401 | 1.09 | 0.526 | 0.361 | 1.24 | 0.464 | 0.497 | 0.607 | 0.874 | 0.832 | 7.89

Source: the supplement of paper PMC10065799, “High-throughput profiling of sequence recognition by tyrosine kinases and SH2 domains using bacterial peptide display” (eLife, 2023)
